In US8106168B2, “Metalloproteinase binding proteins” (Dyax Corp., priority 2005, dated 2012):
Substitutions are numbered along the chain they refer to.

B1: M0035-F02: Fab that binds human MMP-14; DNA LV SEQ ID NO: 28, HV SEQ ID NO: 29 (antibody, V domains shown)
VH: EVQLLESGGGLVQPGGSLRLSCAASGFTFSFYRMEWVRQAPGKGLEWVSSIVPSGGFTRYADSVKGRFTISRDNSKNTLYLQMNSLRAEDTAVYYCARFHVLRYFDWFGNTQDTDAFDIWGQGTLVTVSS
VL: QDIQMTQSPATLSLSPGERATLSCRASQSVSNYLAWYQQKPGQAPRLLIYDASNRATGIPARFSGSGSGTDFTLTISSLEPEDFAVYYCQQRSNWPLTFGGGTKVEIK
modifications: Synthetically generated oligonucleotide
B2: M0036-D02: Fab that binds human MMP-14; DNA LV SEQ ID NO: 30, HV SEQ ID NO: 31 (antibody, V domains shown)
VL: B1 VL with R19K, S29T, S31Y, S53F, S93G, L97R, G101Q
VH: EVQLLESGGGLVQPGGSLRLSCAASGFTFSFYKMTWVRQAPGKGLEWVSGIYPSGGRTVYADSVKGRFTISRDNSKNTLYLQMNSLRAEDTAMYYCARGPHYYDSPGAFDIWGQGTMVTVSS
modifications: Synthetically generated oligonucleotide
B3: M0036-F02: Fab that binds human MMP-14; DNA LV SEQ ID NO: 32, HV SEQ ID NO: 33 (antibody, V domains shown)
VL: QYELTQPPSLSVSPGQTASITCSGEKLGEKFASWYQRRPGQSPLLIIYQDNKRPSGIPERFSGSNSGNTAALTITGTQAMDDADYYCQAWESTTAVFGGGTKLTVL
VH: EVQLLESGGGLVQPGGSLRLSCAASGFTFSRYTMGWVRQAPGKGLEWVSRIYSSGGNTVYADSVKGRFTISRDNSKNTLYLQMNSLRAEDTATYYCARTRRDGYNPFDYWGQGTLVTVSS
modifications: Synthetically generated oligonucleotide
B4: M0037-A08: Fab that binds human MMP-14; DNA LV SEQ ID NO: 36, HV SEQ ID NO: 37 (antibody, V domains shown)
VL: QDIQMTQSPSSVSASVGDRVTITCRASQGVSSYLAWYQQKPGKAPKLLIYGASTLQNGVPSRFSGSGSGTDFTLTISSLQPEDFATYHCQQVHSFPPTFGQGTKVEIK
VH: EVQLLESGGGLVQPGGSLRLSCAASGFTFSHYMMMWVRQAPGKGLEWVSGISSSGGRTGYADSVKGRFTISRDNSKNTLYLQMNSLRAEDTAVYYCASFGNSGSYSWRAFDIWGQGTTVTVSS
modifications: Synthetically generated oligonucleotide
B5: M0037-B10: Fab that binds human MMP-14; DNA LV SEQ ID NO: 38, HV SEQ ID NO: 39 (antibody, V domains shown)
VH: EVQLLESGGGLVQPGGSLRLSCAASGFTFSVYYMGWVRQAPGKGLEWVSYIGSSGGWTEYADSVKGRFTISRDNSKNTLYLQMNSLRAEDTAVYYCARDLSAVAGLGGAFDIWGQGTMVTVSS
VL: QDIQMTQSPSSLSASVGDRVAITCRASQSIDTYLNWYQQKPGKAPKLLIYAASKLEDGVPSRFSGSGTGTDFTLTIRSLQPEDFASYFCQQSYSSPGITFGPGTKVEIK
B6: M0037-C03: Fab that binds human MMP-14; DNA LV SEQ ID NO: 40, HV SEQ ID NO: 41 (antibody, V domains shown)
VL: QDIQMTQSPSSVSASVGDRVTITCRASQGISSWLAWYQQKPGKAPKLLIYAASSLQSGVPSRFSGSGSGTDFTLTISSLQPEDFATYYCQQANSFPFVTFGQGTKLEIK
VH: EVQLLESGGGLVQPGGSLRLSCAASGFTFSMYLMIWVRQAPGKGLEWVSVISSSGGQTKYADSVKGRFTISRDNSKNTLYLQMNSLRAEDTAVYYCARTDLTGYSAGAFDIWGQGTMVTVSS
modifications: Synthetically generated oligonucleotide
B7: M0030-A04: Fab that binds human MMP-14; DNA LV SEQ ID NO: 6, HV SEQ ID NO: 7 (antibody, V domains shown)
VH: EVQLLESGGGLVQPGGSLRLSCAASGFTFSVYEMNWVRQAPGKGLEWVSSIYSSGGRTDYADSVKGRFTISRDNSKNTLYLQMNSLRAEDTAVYYCAREAHYYDSSGPPDYWGQGTLVTVSS
VL: QSELTQPPSASGTPGQRVTISCSGSSSNIGINFVTWYQQLPGTAPKLLIYTNNQRPSGVPDRFSSSKSGASASLAISGLQSEDEAAYYCAAWDDNLNGPVFGGGTKLTVL
modifications: Synthetically generated oligonucleotide
B8: M0037-H09: Fab that binds human MMP-14; DNA LV SEQ ID NO: 46, HV SEQ ID NO: 47 (antibody, V domains shown)
VL: QDIQMTQSPLSLPVTPGEPASISCRSSQSLLHGNGNNYLDWYLQKPGQSPQLLIYLGSNRASGVPDRFSGSGSGTDFTLKISSVEAEDVGVYYCMQGLQTPHTFGQGTQLEIK
VH: EVQLLESGGGLVQPGGSLRLSCAASGFTFSRYWMDWVRQAPGKGLEWVSSIRSSGGMTGYADSVKGRFTISRDNSKNTLYLQMNSLRAEDTAVYYCARHRTGRGAFDIWGQGTTVTVSS
modifications: Synthetically generated oligonucleotide
B9: M0038-B06: Fab that binds human MMP-14; DNA LV SEQ ID NO: 48, HV SEQ ID NO: 49 (antibody, V domains shown)
VL: QDIQMTQSPSSLSASVGDRVTITCRASQSISSYLNWYQQKPGKAPKLLIYAASSLQSGVPSRFRGSGSGTDFSLTISSLQPEDFATYYCQQTYSGLPTFGGGTVVEIK
VH: EVQLLESGGGLVQPGGSLRLSCAASGFTFSSYVMGWVRQAPGKGLEWVSVISPSGGWTTYADSVKGRFTISRDNSKNTLYLQMNSLRAEDTATYYCASRGVVTNLDYWGQGTLVTVSS
modifications: Synthetically generated oligonucleotide
B10: M0038-C05: Fab that binds human MMP-14; DNA LV SEQ ID NO: 50, HV SEQ ID NO: 51 (antibody, V domains shown)
VL: QDIQMTQSPSSLSASVGDRVTITCRASQSISSYLNWYQQKPGKAPKLLIYAASSLQSGVPSRFSGSGSGTDFTLTISRLEPEDFAVYYCQQYGSSPTFGQGTKVEIK
VH: EVQLLESGGGLVQPGGSLRLSCAASGFTFSSYIMVWVRQAPGKGLEWVSVIYPSGGPTYYADSVKGRFTISRDNSKNTLYLQMNSLRAEDTAVYYCARDPRLERFYFDYWGQGTLVTVSS
modifications: Synthetically generated oligonucleotide
B11: M0038-D06: Fab that binds human MMP-14; DNA LV SEQ ID NO: 54, HV SEQ ID NO: 55 (antibody, V domains shown)
VL: B1 VL with N32S, G101Q, K104R, V105L
VH: EVQLLESGGGLVQPGGSLRLSCAASGFTFSWYYMGWVRQAPGKGLEWVSYIGSSGGMTGYADSVKGRFTISRDNSKNTLYLQMNSLRAEDTATYYCAMVGFLPTVDYWGQGTLVTVSS
modifications: Synthetically generated oligonucleotide
B12: M0038-E05: Fab that binds human MMP-14; DNA LV SEQ ID NO: 56, HV SEQ ID NO: 57 (antibody, V domains shown)
VL: QDIQMTQSPSSVSASVGDRVTITCRASQHISNWLAWYQQKPGEAPKLLISAASSLQSGVPSRFSGSGSGTDFTLTISSLQPEDFATYYCQQSYSTPLTFGGGTKVEIK
VH: EVQLLESGGGLVQPGGSLRLSCAASGFTFSPYHMTWVRQAPGKGLEWVSSISSSGGHTEYADSVKGRFTISRDNSKNTLYLQMNSLRAEDTAVYYCATAWAGFTFNVWGQGTMVTVSS
modifications: Synthetically generated oligonucleotide

Biological target: MMP-14 (Homo sapiens, UniProt P50281)
Experiment: Selection and phage ELISA screening of anti-MMP-14 Fabs
Type: binding
Conditions: Fab from FAB310 phage display library
Procedure: Strategy I: A 100-fold excess of the FAB310 library (e.g., an amount of the library that should contain 100 copies of each library member) was depleted of streptavidin-binding antibodies by incubating the library with 200 μL of streptavidin beads for 1 hour at room temperature (RT) with rotation. 500 nM of biotinylated MMP-14 was coupled to streptavidin beads by incubation with 100 μL of streptavidin beads. The MMP-14 beads were then incubated with the streptavidin-depleted library for 1 hour at RT with rotation. The beads were then rinsed three times with 2% MTRIS/0.1% Tween, transferred to a fresh tube and washed an additional three times with 2% MTRIS/0.1% Tween, and transferred to a fresh tube and washed a final time with Round 1 TRIS buffer (50 mM TRIS; 50 mM CaCl2; 150 mM NaCl, pH 7.5).
MMP-14 binding antibodies were eluted from the beads by re-suspension in 1 mL 2% MTRIS containing 2.5 μM TIMP-2 and incubation for 1 hour at RT with rotation. The beads were then washed three times with 2% MTRIS/0.1% Tween, transferred to a fresh tube and washed three times with TRIS/0.1% Tween, and transferred to a fresh tube and washed a final time with TRIS. 1 mL output was used for infection of 9 mL TG1 bacteria (grown to OD600=0.5). The beads were further eluted by suspension in 1 mL 100 mM TEA for 10 minutes. The supernatant was neutralized with 500 μl TRIS/HCl pH 7.5. 1 mL of the second elution was used for infection of 9 mL TG1 bacteria (grown to OD600=0.5).
Two additional rounds of selection were carried out under the same conditions as the first round, except that the streptavidin beads were loaded with 100 nM biotinylated MMP-14 and the number of washes were doubled (6 times with 2% MTRIS/0.1% Tween, 6 times with TRIS/0.1% Tween and 2 times with TRIS), and Round 2/3 Tris buffer (50 mM TRIS; 5 mM CaCl2; 150 mM NaCl pH=7.5) was used for incubation and wash.
TIMP-2 was coupled to carboxylic beads, then complexed with a combination of biotinylated MMP-14 (500 nM each). The complexed beads were incubated with a 100 fold excess of FAB310 library that had been previously depleted by incubation with streptavidin beads and carboxylic beads. Elution/washing was carried out as for Strategy I.
Two additional rounds of selection were carried out, essentially as described for Strategy I, except that only 100 nM of each of MMP-14 were used in the bead complexes.
384-well plates were coated with biotinylated BSA (2 μg/ml in 50 mM TRIS; 5 mM CaCl2; 150 mM NaCl, pH 7.5), then washed 3 times with 50 mM TRIS; 5 mM CaCl2; 150 mM NaCl, pH 7.5; 0.1% Tween. Streptavidin was captured on the coated plates by incubation with 10 μg/mL streptavidin in 50 mM TRIS; 5 mM CaCl2; 150 mM NaCl pH 7.5; 0.5% Gelatin, followed by a wash with 50 mM TRIS; 5 mM CaCl2; 150 mM NaCl pH=7.5; 0.1% Tween. On the day the assay was to be performed, biotinylated MMP-14 (1 μg/ml) was captured in 50 mM TRIS; 5 mM CaCl2; 150 mM NaCl, pH 7.5.
95 clones were picked from each of Round 2 and Round 3 of each selection strategy, producing 12 masterplates. ELISA was run on the MiniTrak-5 deck according to SOP.

Row | Molecule | bind to human MMP-14
1 | B1 | bind to human MMP-14
2 | B2 | bind to human MMP-14
3 | B3 | bind to human MMP-14
4 | B4 | bind to human MMP-14
5 | B5 | bind to human MMP-14
6 | B6 | bind to human MMP-14
7 | B7 | bind to human MMP-14
8 | B8 | bind to human MMP-14
9 | B9 | bind to human MMP-14
10 | B10 | bind to human MMP-14
11 | B11 | bind to human MMP-14
12 | B12 | bind to human MMP-14
